The RNAGym collection of RNA variant scans (doi:10.1073/pnas.2313332121)

B1: TPR t1 (parent)
chain: GACCAAUCUGCCCUCAGAGCUCGAGAACAUCUUCGGAUGCAGAGGAGGCAGGCUUCGGUGGCGCGAUAGCGCCAACGUCCUCAACCUCCAAUGCAUCCCACCACAUGAUGAUGCCUGAAGAGCCUUGGUUUUUUG

Variants of: B1
Assay: polymerase ribozyme fitness, log enrichment relative to wild type (log ratio); higher = more active; in vitro selection for triplet polymerase activity
Outline: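 A heterodimeric triplet polymerase ribozyme had each of its subunits mutagenized by PCR into a library, which was transcribed. One round of in vitro selection, done in triplicate, annealed each library with a biotinylated primer, its partner subunit and triplets, then incubated it frozen at −7 °C before gel excision of extended constructs, streptavidin-bead capture and RT-PCR. Fitness is the logarithm of genotype enrichment relative to wild-type enrichment, based on Illumina sequencing of inputs and outputs and inverse-variance-weighted replicate averages. A base-2 logarithm is used, and genotypes were kept only with ≥10 input reads and ≥1 read per output.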

Row | Variant | polymerase ribozyme fitness (log ratio)
1 | A18C G42U U54C C82G | -2.51
2 | A18C G45A C49G G61A U133A | -4.6
3 | A18C G45A C53U | -4.6
4 | A18C G45A C53U G113A | -3.09
5 | A18C G45U | -3.69
6 | A18C G47U A111U U129G | -7.66
7 | A18C G52C U96C | -3.84
8 | A18C G52U A74U A95U A121G | -3.61
9 | A18C G58U G69C C89U U106A G110U | -4.7
10 | A18C G63A U78G | -5.52
11 | A18C G63A U92G U112C G117A | -4.55
12 | A18C G110A | -3.98
13 | A18C G113U | -4.82
14 | A18C G135U | -3.23
15 | A18C U32C A37U A50U G60A A83U | -4.99
16 | A18C U32C A37U A50U G60A G113A | -5.4
17 | A18C U32C A46U A90U C114U | -3.04
18 | A18C U32C G120C | -0.763
19 | A18C U87G U132A | -2.91
20 | A18C U92G A121G | -0.659
21 | A18C U109A | -5.77
22 | A18G A43U C101G G120A | -4.32
23 | A18G A43U G71U U87C | -4.47
24 | A18G A66U G113A U126C U133A | -4.19

Row | Variant | polymerase ribozyme fitness (log ratio)
25 | A18G A68G U116G C123U | -5.7
26 | A18G A121U | -1.13
27 | A18G C20A C64A A111G U112A | -6.09
28 | A18G C20A C79U G117C | -3.24
29 | A18G C22A G42C U54G G63C U112G | -5.39
30 | A18G C49G U87A C89A U116C A118G | -4.85
31 | A18G C56G A103C C115G U129G U130C | -6.47
32 | A18G C70U C82A | -6.34
33 | A18G C72G A84G U92A C115A | -5.47
34 | A18G C80U | -3.36
35 | A18G C88U G113U | -2.52
36 | A18G C124U | -0.797
37 | A18G G19A C88U A90G | -1.41
38 | A18G G36C G45U U112A | -2.4
39 | A18G G42A C72G G113A U132A | -2.54
40 | A18G G57U G69A C85U G120U | -7.29
41 | A18G G58A C79G A118G | -7.2
42 | A18G G60A C88U A90C | -4.63
43 | A18G G63A C115A C123U | -6.7
44 | A18G G69A C88G G113C | -5.21
45 | A18G G117C | -3.04
46 | A18G G120C | -0.633
47 | A18G G120U | -2.46
48 | A18G G127U | -4.06

Row | Variant | polymerase ribozyme fitness (log ratio)
49 | A18G U32A C76U C124G | -2.81
50 | A18G U78A C86A C97A C102U U109A G113C | -6.86
51 | A18G U81C C89U | -4.16
52 | A18U A24C A27U C40U G63C C89G U116A A121G | -5.65
53 | A18U A29U U54G C89G C114G | -3.41
54 | A18U A41C | -2.34
55 | A18U A41C C88U U92C C104U A111C U125G U132C | -4.68
56 | A18U A41G U106A C124G | -1.51
57 | A18U A41U C114U C115G U116G A121G G122U | -3.05
58 | A18U A43C A121C | -0.924
59 | A18U A43C C49U | -3.92
60 | A18U A43U | -1
61 | A18U A43U C101G | -3.57
62 | A18U A43U U59G G113A U125C | -2.05
63 | A18U A46U | -3.64
64 | A18U C20A C97G U109A U116A | -5.44
65 | A18U C20U U87G | -2.42
66 | A18U C22G G58U U59G U87G | -4.24
67 | A18U C62G A121U | -2.71
68 | A18U C62U C89A U133A | -2.36
69 | A18U C72G | -2.48
70 | A18U C72G C115U G128A | -4.57
71 | A18U C72U C97U | -3.15
72 | A18U C73U C101U G120A | -2.78

Row | Variant | polymerase ribozyme fitness (log ratio)
73 | A18U C76A | -3.36
74 | A18U C76A C94U U112C | -1.22
75 | A18U C85G | -3.16
76 | A18U C85U C94G | -5.59
77 | A18U C88U | -2.25
78 | A18U C94G A121C U126G | -5.02
79 | A18U C98U A111C | -4.18
80 | A18U C104A | -4.32
81 | A18U C123G U129A | -1.83
82 | A18U C124A | -0.753
83 | A18U G25A C34G C53U G61A A100U | -8.02
84 | A18U G36U G48U G69U G120U G122U | -1.69
85 | A18U G39U C104U U112A | -1.88
86 | A18U G42A | -2.11
87 | A18U G42U A74G | -1.91
88 | A18U G44A U54A U59A C86U U106A | -4.83
89 | A18U G44C G69U | -0.776
90 | A18U G44U G110A | -5.32
91 | A18U G47U G52A | -5.39
92 | A18U G48A C49A C85G U133A | -3.22
93 | A18U G48U C64U C88U | -2.9
94 | A18U G52U G61A | -2.78
95 | A18U G57U C88U C101G | -6.08
96 | A18U G58A U112A G122U | -2.54

Row | Variant | polymerase ribozyme fitness (log ratio)
97 | A18U G60A C72U G122A U130G | -3.74
98 | A18U G60U U92G | -3.05
99 | A18U G61A C70U C115A | -5.05
100 | A18U G63A | -3.69
101 | A18U G63U | -4.1
102 | A18U G69A | -5.06
103 | A18U G117U | -4.36
104 | A18U U54A A83U | -4.98
105 | A18U U55G C56G | -4.5
106 | A18U U81A | -3.77
107 | A18U U116C G117A | -4.83
108 | G19A | -2.28
109 | G19A A29G | -3.47
110 | G19A A41U C62U C94U | -3.23
111 | G19A A43U | -2.7
112 | G19A A50U G113C | -2.01
113 | G19A A83G C114G G122C | -4.41
114 | G19A C20A C62U | -4.22
115 | G19A C20G U106C G117A | -6.46
116 | G19A C20U | -1.54
117 | G19A C20U U55G G57U C99A G113U | -6.19
118 | G19A C40U C53A G58C G93U | -4.4
119 | G19A C49G G63C G93C A105C G107C G117C | -6.07
120 | G19A C53A U125G | -3.26

Row | Variant | polymerase ribozyme fitness (log ratio)
121 | G19A C62U C88A A121C | -1.46
122 | G19A C70A C94U | -5.61
123 | G19A C70U C76G U81C | -4.57
124 | G19A C73G G77U U112A G128A | -2.41
125 | G19A C94G | -3.41
126 | G19A C102A | -5.35
127 | G19A C104U | -2.85
128 | G19A C114A A121U | -1.17
129 | G19A G39U G61U G120C U132A | -1.96
130 | G19A G44U C124A | -1.74
131 | G19A G45A C62U G71A | -3.18
132 | G19A G48A A91G | -3.87
133 | G19A G51U G60A C124U | -5.85
134 | G19A G58C G107A C114U | -3.12
135 | G19A G60A | -1.41
136 | G19A G63C C76A G93A G110C | -5.44
137 | G19A U106A | -2.97
138 | G19C | -1.91
139 | G19C A24G A26U C34U A43C G61U C123G | -7.57
140 | G19C A41U C64G C98A U109A | -6.43
141 | G19C A41U G71A C88G C89U C104A C124U | -5.88
142 | G19C A41U U130C | -2.43
143 | G19C C20A C56U G71A A95U C102U U116C C123U U126G | -5.6
144 | G19C C20U C31G C89U U109C C123U | -7.81

Row | Variant | polymerase ribozyme fitness (log ratio)
145 | G19C C22U A46C G61U | -5.14
146 | G19C C31G C72G G110U U131A | -7.2
147 | G19C C49A A50U G69U C89U U106A C123G U132A U133G | -1.46
148 | G19C C53G C62U C86U | -2.88
149 | G19C C62A U96A C124A G128C | -5.42
150 | G19C C70U U112A G120A U130C | -2.23
151 | G19C C88U | -2.6
152 | G19C C101A | -3.27
153 | G19C G39A C53A C76U | -3.34
154 | G19C G42C C97U C115A A119G U129A | -5.99
155 | G19C G45A C53U | -3.65
156 | G19C G58C A75U C82G | -3.28
157 | G19C G61A U81G A84G A91G A111G | -4.6
158 | G19C G69C C86G A121G | -3.28
159 | G19U | -2.52
160 | G19U A29G | -4.96
161 | G19U A41U G63C A111G | -4.2
162 | G19U A43U G122A C124A | -2.23
163 | G19U A111C | -2.32
164 | G19U A121U | 0.0875
165 | G19U C49U C53U G60U C123U | -5.84
166 | G19U C53G C73A U112A G135A | -0.754
167 | G19U C56A G113C | -3.24
